Assay results as given in the supplement of paper PMC9112550, “Optimization of the antimicrobial peptide Bac7 by deep mutational scanning” (BMC Biology, 2022).

System: Escherichia coli TOP10
Test: shrunken log2 fold change of peptide-encoding DNA abundance (4.5 h post-induction vs induction); higher = less antimicrobial activity (less host growth inhibition)
Settings: time post-induction: 4.5 h; library: site-saturation at positions 5, 18, 19, 20
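Further: peptides expressed intracellularly from a pBAD plasmid library in pooled LB shake-flask culture, induced with 0.3% L-arabinose, DNA abundance read by NGS, three biological replicates, DESeq2 with apeglm shrinkage.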

| Sequence | shrunken log2 fold change |
| --- | --- |
| RRIRARPPRLPRPRPRPYDKPRP | -0.865 |
| RRIRDRPPRLPRPRPRPAQLPRP | -0.0667 |
| RRIRCRPPRLPRPRPRPFNAPRP | -0.521 |
| RRIRWRPPRLPRPRPRPGINPRP | 0.0653 |
| RRIRMRPPRLPRPRPRPCQWPRP | -0.152 |
| RRIRPRPPRLPRPRPRPMNEPRP | -0.0529 |
| RRIRMRPPRLPRPRPRPQWCPRP | -0.0474 |
| RRIRCRPPRLPRPRPRPIMIPRP | -0.566 |
| RRIRLRPPRLPRPRPRPFCIPRP | -0.22 |
| RRIRTRPPRLPRPRPRPLGGPRP | 0.137 |
| RRIRDRPPRLPRPRPRPEPDPRP | 1.33 |
| RRIRARPPRLPRPRPRPWDQPRP | 0.353 |
| RRIRDRPPRLPRPRPRPSSNPRP | -0.148 |
| RRIRIRPPRLPRPRPRPIETPRP | -0.0467 |
| RRIRQRPPRLPRPRPRPRQFPRP | -0.121 |
| RRIRLRPPRLPRPRPRPFSWPRP | -0.213 |
| RRIRVRPPRLPRPRPRPEFLPRP | 0.0805 |
| RRIRGRPPRLPRPRPRPGADPRP | 1.48 |
| RRIRWRPPRLPRPRPRPNSTPRP | -0.326 |
| RRIRYRPPRLPRPRPRPHPYPRP | -0.449 |
| RRIRQRPPRLPRPRPRPKVVPRP | -0.0141 |
| RRIRNRPPRLPRPRPRPFCMPRP | -0.45 |
| RRIRQRPPRLPRPRPRPVDWPRP | 0.39 |
| RRIRMRPPRLPRPRPRPGSEPRP | 0.952 |
| RRIRIRPPRLPRPRPRPAQHPRP | -0.0384 |

| Sequence | shrunken log2 fold change |
| --- | --- |
| RRIRGRPPRLPRPRPRPKVRPRP | 0.105 |
| RRIRIRPPRLPRPRPRPGTYPRP | -0.0378 |
| RRIRGRPPRLPRPRPRPCTKPRP | 0.235 |
| RRIRVRPPRLPRPRPRPQCVPRP | -0.218 |
| RRIRVRPPRLPRPRPRPCWPPRP | 0.237 |
| RRIRWRPPRLPRPRPRPLGIPRP | -0.242 |
| RRIRFRPPRLPRPRPRPNDQPRP | -0.0705 |
| RRIRLRPPRLPRPRPRPEPMPRP | -0.0888 |
| RRIRRRPPRLPRPRPRPVHLPRP | -0.022 |
| RRIRNRPPRLPRPRPRPLKCPRP | 0.0144 |
| RRIRLRPPRLPRPRPRPYVKPRP | -0.182 |
| RRIRARPPRLPRPRPRPRLDPRP | 0.291 |
| RRIRQRPPRLPRPRPRPEPSPRP | 0.102 |
| RRIRPRPPRLPRPRPRPGYDPRP | -0.0887 |
| RRIRFRPPRLPRPRPRPNMVPRP | -0.124 |
| RRIRERPPRLPRPRPRPYRCPRP | -0.0874 |
| RRIRFRPPRLPRPRPRPNWTPRP | -0.00237 |
| RRIRVRPPRLPRPRPRPGWFPRP | 0.22 |
| RRIRLRPPRLPRPRPRPWANPRP | 0.0875 |
| RRIRARPPRLPRPRPRPVSQPRP | 0.385 |
| RRIRPRPPRLPRPRPRPDLVPRP | -0.0293 |
| RRIRPRPPRLPRPRPRPRHNPRP | -0.0793 |
| RRIRHRPPRLPRPRPRPPSWPRP | 0.393 |
| RRIRGRPPRLPRPRPRPIASPRP | 0.524 |
| RRIRSRPPRLPRPRPRPKCWPRP | 0.359 |

| Sequence | shrunken log2 fold change |
| --- | --- |
| RRIRNRPPRLPRPRPRPELPPRP | -0.098 |
| RRIRCRPPRLPRPRPRPHHEPRP | -0.24 |
| RRIRDRPPRLPRPRPRPQWHPRP | -0.292 |
| RRIRFRPPRLPRPRPRPRCPPRP | 0.262 |
| RRIRLRPPRLPRPRPRPIYVPRP | -0.0939 |
| RRIRSRPPRLPRPRPRPFMAPRP | -0.497 |
| RRIRIRPPRLPRPRPRPDPTPRP | -0.0575 |
| RRIRPRPPRLPRPRPRPEISPRP | -0.00759 |
| RRIRARPPRLPRPRPRPFEYPRP | -0.0276 |
| RRIRRRPPRLPRPRPRPEMNPRP | 0.406 |
| RRIRCRPPRLPRPRPRPWRHPRP | -0.126 |
| RRIRSRPPRLPRPRPRPTGFPRP | -0.0473 |
| RRIRIRPPRLPRPRPRPHKKPRP | -0.0912 |
| RRIRQRPPRLPRPRPRPQWWPRP | 0.0549 |
| RRIRLRPPRLPRPRPRPMEHPRP | -0.00579 |
| RRIRPRPPRLPRPRPRPSLCPRP | -0.0173 |
| RRIRIRPPRLPRPRPRPKMAPRP | -0.179 |
| RRIRWRPPRLPRPRPRPTNEPRP | 0.225 |
| RRIRVRPPRLPRPRPRPWHKPRP | -0.127 |
| RRIRVRPPRLPRPRPRPCAIPRP | -0.379 |
| RRIRHRPPRLPRPRPRPWASPRP | -0.0831 |
| RRIRIRPPRLPRPRPRPDRGPRP | -0.0332 |
| RRIRRRPPRLPRPRPRPRLAPRP | 0.62 |
| RRIRHRPPRLPRPRPRPHQRPRP | 0.0129 |
| RRIRTRPPRLPRPRPRPNINPRP | -0.812 |

| Sequence | shrunken log2 fold change |
| --- | --- |
| RRIRTRPPRLPRPRPRPVPRPRP | 0.315 |
| RRIRDRPPRLPRPRPRPWSEPRP | -0.228 |
| RRIRKRPPRLPRPRPRPSHIPRP | 0.156 |
| RRIRKRPPRLPRPRPRPYTLPRP | 0.0187 |
| RRIRQRPPRLPRPRPRPTNMPRP | -0.521 |
| RRIRRRPPRLPRPRPRPPSCPRP | 0.301 |
| RRIRWRPPRLPRPRPRPYAKPRP | -0.41 |
| RRIRKRPPRLPRPRPRPFHSPRP | 0.00367 |
| RRIRPRPPRLPRPRPRPYVSPRP | 0.00613 |
| RRIRLRPPRLPRPRPRPRTAPRP | 0.482 |
| RRIRFRPPRLPRPRPRPTPPPRP | 0.797 |
| RRIRKRPPRLPRPRPRPPNLPRP | 0.492 |
| RRIRYRPPRLPRPRPRPHKSPRP | -0.526 |
| RRIRSRPPRLPRPRPRPPFHPRP | -0.0308 |
| RRIRDRPPRLPRPRPRPVPWPRP | 0.189 |
| RRIRFRPPRLPRPRPRPNTVPRP | -0.363 |
| RRIRQRPPRLPRPRPRPKSVPRP | -0.0026 |
| RRIRLRPPRLPRPRPRPKHYPRP | -0.406 |
| RRIRPRPPRLPRPRPRPDQPPRP | -0.0572 |
| RRIRSRPPRLPRPRPRPAYIPRP | -0.0884 |
| RRIRCRPPRLPRPRPRPSFRPRP | -0.439 |
| RRIRQRPPRLPRPRPRPVERPRP | -0.0839 |
| RRIRDRPPRLPRPRPRPSVWPRP | 0.404 |
| RRIRWRPPRLPRPRPRPAKGPRP | -0.0312 |
| RRIRRRPPRLPRPRPRPPECPRP | 0.222 |

| Sequence | shrunken log2 fold change |
| --- | --- |
| RRIRSRPPRLPRPRPRPERCPRP | 0.0123 |
| RRIRSRPPRLPRPRPRPTILPRP | -0.413 |
| RRIRFRPPRLPRPRPRPPDHPRP | 0.28 |
| RRIRGRPPRLPRPRPRPLQSPRP | 0.746 |
| RRIRRRPPRLPRPRPRPNHIPRP | -0.502 |
| RRIRFRPPRLPRPRPRPSVDPRP | -0.011 |
| RRIRLRPPRLPRPRPRPDRYPRP | -0.063 |
| RRIRFRPPRLPRPRPRPMFKPRP | -0.581 |
| RRIRDRPPRLPRPRPRPNKHPRP | -0.425 |
| RRIRIRPPRLPRPRPRPDQSPRP | -0.138 |
| RRIRWRPPRLPRPRPRPTSVPRP | 0.233 |
| RRIRVRPPRLPRPRPRPGYQPRP | -0.00841 |
| RRIRWRPPRLPRPRPRPQMQPRP | 0.0894 |
| RRIRRRPPRLPRPRPRPMRPPRP | 0.66 |
| RRIRIRPPRLPRPRPRPPELPRP | -0.123 |
| RRIRRRPPRLPRPRPRPMMNPRP | 0.00643 |
| RRIRPRPPRLPRPRPRPFMIPRP | 0.471 |
| RRIRMRPPRLPRPRPRPWAAPRP | 0.502 |
| RRIRERPPRLPRPRPRPELCPRP | 0.511 |
| RRIRVRPPRLPRPRPRPWGAPRP | 0.21 |
| RRIRIRPPRLPRPRPRPQAIPRP | 0.0305 |
| RRIRLRPPRLPRPRPRPMVYPRP | -0.0262 |
| RRIRMRPPRLPRPRPRPLYKPRP | -0.134 |
| RRIRYRPPRLPRPRPRPEAKPRP | -0.109 |
| RRIRTRPPRLPRPRPRPTCAPRP | 0.175 |
